{
  "source": "paper PMC3017119",
  "about": "“Structural Basis for the Recognition of Cellular mRNA Export Factor REF by Herpes Viral Proteins HSV-1 ICP27 and HVS ORF57” (PLoS Pathogens, 2011)",
  "key": {"GST-REF2-I": {"tested_on": "GST-REF2-I", "assay": "GST-REF2-I pull down of 35S-radiolabelled ICP27 fragments", "assay_type": "binding, murine", "settings": "35S-radiolabelled protein from rabbit reticulocytes, glutathione beads, RB100 buffer pH 7.5, 10 µg/ml RNAse A; SDS-PAGE, PhosphoImage", "source_text": "To confirm the position of REF-binding domains within ICP27 and ORF57 and to minimise the size of constructs for more detailed NMR mapping, a series of fragments derived from HSV-1 ICP27 were screened for binding to GST-REF2-I using pull down assays (Fig. 1). […] The REF-binding fragment of ORF57 aa 8–120 identified previously similarly interacted with the same fragments of REF (Fig. 1D).\nFigure 1 Identification of regions for the interactions between REF and ICP27/ORF57. (A) Subdivision of ICP27, ORF57 and REF2-I in fragments. […] (C) Fusion of the ICP27^103–138 peptide to GST allows a specific pull down of REF, REF^1–155 (NM) and REF^54–155 (Δ53) and a very weak pull down of the REF^1–70 (N); no interaction is detected with the control Ras protein. (D) Same pull down assay as panel C but using GST fusion of ORF57 aa 8–120 in place of ICP27.\nGST or GST protein fusions were first immobilised on 30 µl slurry glutathione-coated beads (GE Healthcare) before 8 µl ^35S-radiolabelled proteins synthesised in rabbit reticulocytes (Promega) were added to the binding reactions in RB100 buffer (25 mM HEPES pH 7.5/100 mM KOAc/10 mM MgCl2/1 mM DTT/0.05% Triton X-100/10% glycerol) in presence of 10 µg/ml RNAse A. Washed and eluted protein complexes were resolved on 15% SDS-PAGE stained with Coomassie blue and analysed by PhosphoImage. […]"}, "[1]": {"tested_on": "REF^156–218 (REF2-I C-terminal domain)", "assay": "NMR 1H-15N correlation spectra of 15N-labelled REF^156–218 with added viral protein constructs", "assay_type": "binding, murine", "settings": "2-fold excess of viral construct; 15N-HSQC"}},
  "data": [
    {"molecule": "ICP27^1–138: recombinant fragment aa 1–138 of HSV-1 ICP27 (protein, 35S-radiolabelled, recombinant fragment aa 1–138 of HSV-1 ICP27) MATDIDMLIDLGLDLSDSDLDEDPPEPAESRRDDLESDSSGECSSSDEDMEDPHGEDGPEPILDAARPAVRPSRPEDPGVPSTQTPRPTERQGPNDPQPAPHSVWSRLGARRPSCSPEQHGGKVARLQPPPTKAQPAR", "values": [
      {"measurement": "Binding to GST-REF2-I in pull down", "setting": "GST-REF2-I", "value": "essentially the same as that of the full-length protein"},
      {"measurement": "Changes in 1H-15N correlation spectra of 15N-REF^156–218 upon addition", "setting": "[1]", "value": "No significant changes"}
    ]}
  ]
}
